Reference: patent US20230212319A1, “NOVEL ANTIGEN BINDING DOMAINS AND SYNTHETIC ANTIGEN RECEPTORS INCORPORATING THE SAME” (University of Southern California, priority 2020, published 2023)

Columns and labels:
Format in all cases: cell-based
Nalm6 cells = experiment: JNG assay, co-culture with Nalm6 cells; conditions: co-culture with Nalm6
Procedure, shortened: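 Values are semi-quantitative grades of GFP induction, each step approximating 10% more GFP+ cells (5+ ≈50%) above parental reporter cells, measured by FACS after SAR-transduced JNG cells were cultured with targets at ~1:2 E:T for ~4–18 h.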

RS;411 = experiment: JNG assay, co-culture with RS;411 cells; conditions: co-culture with RS411
Procedure, shortened: (§1)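 Jurkat-NFAT-GFP (JNG) cells stably expressing SAR constructs via lentiviral transduction and puromycin/blasticidin selection were cocultured with target cells at E:T ~1:2 for ~4–18 h. NFAT-driven GFP was measured by FACS versus parental JNG cells; scores +/- to 5+ denote ~5–50% GFP-positive cells.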

L363 cells = experiment: JNG assay, co-culture with L363 cells; conditions: co-culture with L363
Procedure, shortened: as §1

RAJI-CD19-KO cells = experiment: JNG assay, co-culture with RAJI-CD19-KO cells; conditions: co-culture with Raji-CD19-KO
Procedure, shortened: as §1

RAJI cells = experiment: JNG assay, co-culture with RAJI cells; conditions: JNG cells expressing construct, co-culture with Raji
Procedure, shortened: as §1

| Molecule | NFAT-GFP ASSAY: Nalm6 (Nalm6 cells) | NFAT-GFP ASSAY: RS411 (RS;411) | NFAT-GFP ASSAY: L363 (L363 cells) | NFAT-GFP ASSAY: Raji-CD19-KO (RAJI-CD19-KO cells) | NFAT-GFP ASSAY: Raji (RAJI cells) |
| --- | --- | --- | --- | --- | --- |
| 22111 (protein) MALPVTALLLPLALLLHAARPEVQLLESGGGLVQPGGSLRLSCAASGFTFSSYAMSWVRQAPGKGLEWVSSISGSGDYIYYADSVKGRFTISRDISKNTLYLQMNSLRAEDTAVYYCAKEGTGANSSLADYRGQGTLVTVSSGTGGGGSGGGGSGGGGSEFDIQMTQSPSSLSASVGDRVTITCKASDHINNWLAWYQQKPGQAPKLLIYGATTLETGVPSRFSGSGSGTDYTLTISSLQPEDFATYYCQQSWNTPWTFGQGTKLEIKRLEDLKNVFPPEVAVFEPSEAEISHTQKATLVCLATGFYPDHVELSWWVNGKEVHSGVCTDPQPLKEQPALNDSRYCLSSRLRVSATFWQNPRNHFRCQVQFYGLSENDEWTQDRAKPVTQIVSAEAWGRADCGFTSESYQQGVLSATILYEILLGKATLYAVLVSALVLMAMVKRKDSRGRAKRSGSGATNFSLLKQAGDVEENPGPTSMDWIWRILFLVGAATGAHSFEQVQLQQPGAELVKPGASVKMSCKASGYAFSSYWINWMKQKPGQGLEWIGQIYPGDGDTNYNGKFKGRATLTADTSSSTAYMQLSSLTSEDSAVYFCARSITTVVGCAMDYWGQGTSVTVSSTRIQNPDPAVYQLRDSKSSDKSVCLFTDFDSQTNVSQSKDSDVYITDKCVLDMRSMDFKSNSAVAWSNKSDFACANAFNNSIIPEDTFFPSPESSCDVKLVEKSFETDTNLNFQNLSVIGFRILLLKVAGFNLLMTLRLWSSRAKRSGSGVKQTLNFDLLKLAGDVESNPGPSRGHMTEYKPTVRLATRDDVPRAVRTLAAAFADYPATRHTVDPDRHIERVTELQELFLTRVGLDIGKVWVADDGAAVAVWTTPESVEAGAVFAEIGPRMAELSGSRLAAQQQMEGLLAPHRPKEPAWFLATVGVSPDHQGKGLGSAVVLPGVEAAERAGVPAFLETSAPRNLPFYERLGFTVTADVEVPEGPRTWCMTRKPGA | 2+ (refer to approximately 5%, 10%, 20%, 30%, 40% and 50% GFP positive cells) | 4+ (refer to approximately 5%, 10%, 20%, 30%, 40% and 50% GFP positive cells) | 3+ (refer to approximately 5%, 10%, 20%, 30%, 40% and 50% GFP positive cells) | 3+ (refer to approximately 5%, 10%, 20%, 30%, 40% and 50% GFP positive cells) | 4+ (refer to approximately 5%, 10%, 20%, 30%, 40% and 50% GFP positive cells) |
| 22127 (protein) MALPVTALLLPLALLLHAARPMLPAPKNLVVSRITEDSARLSWTAPDAAFDSFPIRYIETLIWGEAIWLDVPGSERSYDLTGLKPGTEYAVVITGVKGGRFSSPLVASFTTGTGGGGSGGGGSGGGGSEFDIQMTQSPSSLSASVGDRVTITCKASDHINNWLAWYQQKPGQAPKLLIYGATTLETGVPSRFSGSGSGTDYTLTISSLQPEDFATYYCQQSWNTPWTFGQGTKLEIKRLEIQNPDPAVYQLRDSKSSDKSVCLFTDFDSQTNVSQSKDSDVYITDKCVLDMRSMDFKSNSAVAWSNKSDFACANAFNNSIIPEDTFFPSSDVPCDVKLVEKSFETDTNLNFQNLSVIGFRILLLKVAGFNLLMTLRLWSSRAKRSGSGVKQTLNFDLLKLAGDVESNPGPTSATMDWIWRILFLVGAATGAHSGPQVQLQESGGGLAQAGGSLRLSCAASGRTFSMGWFRQAPGKEREFVAAITYSGGSPYYASSVRGRFTISRDNAKNTVYLQMNSLKPEDTAVYYCAANPTYGSDWNAENWGQGTQVTVSSGSGGGGSGGGGSGGGGSFEQVQLQQPGAELVKPGASVKMSCKASGYAFSSYWINWMKQKPGQGLEWIGQIYPGDGDTNYNGKFKGRATLTADTSSSTAYMQLSSLTSEDSAVYFCARSITTVVGCAMDYWGQGTSVTVSSTREDLKNVFPPEVAVFEPSKAEIAHTQKATLVCLATGFYPDHVELSWWVNGKEVHSGVCTDPQPLKEQPALNDSRYCLSSRLRVSATFWQNPRNHFRCQVQFYGLSENDEWTQDRAKPVTQIVSAEAWGRADCGITSASYHQGVLSATILYEILLGKATLYAVLVSALVLMAMVKRKDSRGRAKRSGSGATNFSLLKQAGDVEENPGPSRGHMTEYKPTVRLATRDDVPRAVRTLAAAFADYPATRHTVDPDRHIERVTELQELFLTRVGLDIGKVWVADDGAAVAVWTTPESVEAGAVFAEIGPRMAELSGSRLAAQQQMEGLLAPHRPKEPAWFLATVGVSPDHQGKGLGSAVVLPGVEAAERAGVPAFLETSAPRNLPFYERLGFTVTADVEVPEGPRTWCMTRKPGA | Raji (+), Raji-CD19-KO (+), Nalm6 (+), L363 (+), RS411 (+) (refer to approximately 5%, 10%, 20%, 30%, 40% and 50% GFP positive cells) | Raji (+), Raji-CD19-KO (+), Nalm6 (+), L363 (+), RS411 (+) (refer to approximately 5%, 10%, 20%, 30%, 40% and 50% GFP positive cells) | Raji (+), Raji-CD19-KO (+), Nalm6 (+), L363 (+), RS411 (+) (refer to approximately 5%, 10%, 20%, 30%, 40% and 50% GFP positive cells) | Raji (+), Raji-CD19-KO (+), Nalm6 (+), L363 (+), RS411 (+) (refer to approximately 5%, 10%, 20%, 30%, 40% and 50% GFP positive cells) | Raji (+), Raji-CD19-KO (+), Nalm6 (+), L363 (+), RS411 (+) (refer to approximately 5%, 10%, 20%, 30%, 40% and 50% GFP positive cells) |
| 22129 (protein) MALPVTALLLPLALLLHAARPEVQVLESGGGLVQPGGSLRLSCAASGFTFSNFAMSWVRQAPGKGLEWVSTISGSAGTTDYADSVKGRFTISRDNSKKTLYLQMNSLRVEDTAVYYCADGRGPFFDYRGQGTLVTVSSGTGGGGSGGGGSGGGGSEFDIQMTQSPSSLSASVGDRVTITCKASDHINNWLAWYQQKPGQAPKLLIYGATTLETGVPSRFSGSGSGTDYTLTISSLQPEDFATYYCQQSWNTPWTFGQGTKLEIKRLEIQNPDPAVYQLRDSKSSDKSVCLFTDFDSQTNVSQSKDSDVYITDKCVLDMRSMDFKSNSAVAWSNKSDFACANAFNNSIIPEDTFFPSSDVPCDVKLVEKSFETDTNLNFQNLSVIGFRILLLKVAGFNLLMTLRLWSSRAKRSGSGVKQTLNFDLLKLAGDVESNPGPTSATMDWIWRILFLVGAATGAHSGPQVQLQESGGGLAQAGGSLRLSCAASGRTFSMGWFRQAPGKEREFVAAITYSGGSPYYASSVRGRFTISRDNAKNTVYLQMNSLKPEDTAVYYCAANPTYGSDWNAENWGQGTQVTVSSGSGGGGSGGGGSGGGGSFEQVQLQQPGAELVKPGASVKMSCKASGYAFSSYWINWMKQKPGQGLEWIGQIYPGDGDTNYNGKFKGRATLTADTSSSTAYMQLSSLTSEDSAVYFCARSITTVVGCAMDYWGQGTSVTVSSTREDLKNVFPPEVAVFEPSKAEIAHTQKATLVCLATGFYPDHVELSWWVNGKEVHSGVCTDPQPLKEQPALNDSRYCLSSRLRVSATFWQNPRNHFRCQVQFYGLSENDEWTQDRAKPVTQIVSAEAWGRADCGITSASYHQGVLSATILYEILLGKATLYAVLVSALVLMAMVKRKDSRGRAKRSGSGATNFSLLKQAGDVEENPGPSRGHMTEYKPTVRLATRDDVPRAVRTLAAAFADYPATRHTVDPDRHIERVTELQELFLTRVGLDIGKVWVADDGAAVAVWTTPESVEAGAVFAEIGPRMAELSGSRLAAQQQMEGLLAPHRPKEPAWFLATVGVSPDHQGKGLGSAVVLPGVEAAERAGVPAFLETSAPRNLPFYERLGFTVTADVEVPEGPRTWCMTRKPGA | Raji (+), Raji-CD19-KO (+), Nalm6 (+), L363 (+), RS411 (+) (refer to approximately 5%, 10%, 20%, 30%, 40% and 50% GFP positive cells) | Raji (+), Raji-CD19-KO (+), Nalm6 (+), L363 (+), RS411 (+) (refer to approximately 5%, 10%, 20%, 30%, 40% and 50% GFP positive cells) | Raji (+), Raji-CD19-KO (+), Nalm6 (+), L363 (+), RS411 (+) (refer to approximately 5%, 10%, 20%, 30%, 40% and 50% GFP positive cells) | Raji (+), Raji-CD19-KO (+), Nalm6 (+), L363 (+), RS411 (+) (refer to approximately 5%, 10%, 20%, 30%, 40% and 50% GFP positive cells) | Raji (+), Raji-CD19-KO (+), Nalm6 (+), L363 (+), RS411 (+) (refer to approximately 5%, 10%, 20%, 30%, 40% and 50% GFP positive cells) |
